According to patent publication US20250195629A1, “SITE-SPECIFIC BRAIN THERAPEUTICS” (William Marsh Rice University, priority 2023, published 2025):
Where two headings read alike, the source gives them in different places.

Experiments:
[1] = test system: dopamine receptor D1+ or D2+ expressing cells in the CPu; format: in vivo, mouse
Method: c-Fos activation with engineered AADC—Three groups of mice underwent FUS-BBBO procedure to target a single site at left striatum immediately after intravenous injection of recombinant protein AADC-IKVAV (SEQ ID NO: 23) (20 mg/mL, 250 mg/kg) or equivalent volume of PBS buffer (n=5 mice for FUS alone+L-DOPA group). After 48 h, the mice were given a single dose of L-DOPA (0.1 mg/mL, 2 mg/kg, i.p.; Spectrum Chemical) 10 min after injection of carbidopa (1 mg/mL, 25 mg/kg, i.p.; Sigma-Aldrich), both of which were dissolved in sterile saline containing 2.5 and 0.125 mg/mL ascorbic acid. […] After 2 hours, the mice were euthanized by transcardial perfusion, and their brains were extracted and sliced into 50 μm coronal sections following 24-48 hours of fixation.
The section displaying the strongest AADC fluorescence was selected as the representative for each mouse, and its adjacent section was stained separately to identify c-Fos and dopamine receptor D1 and D2 positive cells. The procedure was carried out as follows: (1) block sections in 10% normal goat serum (SouthernBiotech) and 0.3% Triton-X solution in PBS for 1 h at room temperature; (2) incubate with primary rabbit anti-c-Fos (1:2000, 2250S, Cell Signaling Technology) antibody in PBS with 0.3% Triton-X for 2 h at room temperature; (3) after washing three times in PBS (15 min each, the same as below), incubate with primary rat anti-D1 Dopamine Receptor (1:500, D2944, MilliporeSigma) and Guinea pig anti-Dopamine Receptor D2 (1:500, Cat. #376 205, Synaptic Systems) antibodies in 5% normal goat serum and 0.3% Triton-X solution in PBS overnight at 4° C.; (4) after washing three times, incubate with secondary goat anti-rabbit antibody conjugated to Alexa Fluor 647 (1:500, A-21245, ThermoFisher) in PBS with 0.3% Triton-X for 2 h at room temperature; (5) after washing three times, incubate with secondary goat anti-rat antibody conjugated to Alexa Fluor 546 (1:500, A-11081, ThermoFisher) and goat anti-Guinea Pig antibody conjugated to Alexa Fluor 488 (1:500, A-11073, ThermoFisher) in 5% normal goat serum and 0.3% Triton-X solution in PBS for 2 h at room temperature; (6) after washing three times, mount sections onto glass slides using the mounting media (Vector Laboratories) with DAPI and air-dry overnight in dark before imaging.
Within the left striatum region, a specific 5×9 binned rectangle area was selected corresponding to the highest observed AADC fluorescence in the adjacent AADC-stained section. Subsequently, images were captured of these areas using a 40× objective. The corresponding contralateral areas in the right striatum were also imaged.
(§1) In FIG. 7, we applied the following brightness (white) thresholds for the corresponding channels: 6045 (DAPI, nuclei, not shown), 15,000 (Cy3, D1R), 16,000 (green, D2R), and 6045 (far-red, c-Fos), with a gamma value of 1. In FIG. 11, we applied a Brightness (White) threshold of 6045 for both DAPI (nuclei, not shown) and far-red (c-Fos) channels, with a Gamma value of 1. The images were then overlayed, and the c-Fos+ cells were manually counted. Similarly, the GFAP+ cells were manually counted, as shown in FIG. 15c and FIG. 17, by applying a Brightness (White) threshold of 5686 and a Gamma value of 1 for both the DAPI (nuclei) and far-red (GFAP, purple) channels.
To manually count the c-Fos-positive cells in FIG. 7, three scorers (Z. H., S. N., and R. J.) independently assessed all c-Fos staining sites. R. J. served as the blinded scorer, and the averaged counts from all three scorers were rounded for the final statistical analysis.

[2] = test system: c-Fos+ cells in the CPu; assay: c-Fos+ cell count at the CPu after behavior test; format: in vivo, mouse
Description: To quantify the c-Fos-positive cells related to FIG. 11, the stained coronal sections were initially imaged using a 4× objective in DAPI (nuclei, not shown) and far-red (c-Fos, shown in purple) channels. Within the left striatum region, one or more specific 3×3 binned square areas were selected corresponding to the highest observed AADC fluorescence in the adjacent AADC-stained section. Subsequently, images of these areas were captured using a 40× objective. Corresponding contralateral areas in the right striatum were also captured.
as §1
To address potential bias and validate our counting approach, all c-Fos staining sites from mice in FIG. 11 were independently counted by 4 scorers (A. M., Z. H., C. H. and R. J.). C. […]

## N[C@@H](Cc1ccc(O)c(O)c1)C(=O)O [L-DOPA, reference compound]
[1]; FUS alone + L-DOPA 2 mg/kg i.p., no enzyme
  c-Fos+ cells expressing D1+ or D2+, FUS-targeted region vs contralateral site: No significant change
[1]; FUS-BBBO only without AADC-IKVAV (FUS alone+L-DOPA)
  c-Fos+ cells with no expression of D1+ or D2+ in vicinity of CPu, FUS-targeted vs contralateral: no significant changes
[2]; untreated mice or FUS alone, L-DOPA 2 mg/kg i.p.
  change in ipsilateral c-Fos-positive cells vs contralateral site: no significant changes

B1: AADC-IKVAV: aromatic-L-amino-acid decarboxylase (AADC) protein fused with short peptide IKVAV (SEQ ID NO: 23); CDS SEQ ID NO: 21 (protein)
chain: MRGSHHHHHHGMASMTGGQQMGRDLYDDDDKDPMNASEFRRRGKEMVDYMANYMEGIEGRQVYPDVEPGYLRPLIPAAAPQEPDTFEDIINDVEKIIMPGVTHWHSPYFFAYFPTASSYPAMLADMLCGAIGCIGFSWAASPACTELETVMMDWLGKMLELPKAFLNEKAGEGGGVIQGSASEATLVALLAARTKVIHRLQAASPELTQAAIMEKLVAYSSDQAHSSVERAGLIGGVKLKAIPSDGNFAMRASALQEALERDKAAGLIPFFMVATLGTTTCCSFDNLLEVGPICNKEDIWLHVDAAYAGSAFICPEFRHLLNGVEFADSFNFNPHKWLLVNFDCSAMWVKKRTDLTGAFRLDPTYLKHSHQDSGLITDYRHWQIPLGRRFRSLKMWFVFRMYGVKGLQAYIRKHVQLSHEFESLVRQDPRFEICVEVILGLVCFRLKGSNKVNEALLQRINSAKKIHLVPCHLRDKFVLRFAICSRTVESAHVQRAWEHIKELAADVLRAEREGGSGSSGGSGGSGGSGIKVAV
modifications: misc_feature 1..1602 Synthetic: AADC-IKVAV
[1]; FUS+AADC-IKVAV 250 mg/kg i.v., L-DOPA 2 mg/kg i.p. after 48 h, perfused 2 h later
  c-Fos+ cells expressing D1+ or D2+, FUS-targeted region vs contralateral site: 6.6 (±1.7) fold
[1]; FUS+AADC-IKVAV alone
  c-Fos+ cells with no expression of D1+ or D2+ in vicinity of CPu, FUS-targeted vs contralateral: no statistically significant changes
[1]; FUS+AADC-IKVAV without L-DOPA
  c-Fos+ cells expressing D1+ or D2+, FUS-targeted region vs contralateral site: No significant change
[1]; FUS+AADC-IKVAV+L-DOPA
  c-Fos+ cells with no expression of D1+ or D2+ in vicinity of CPu, FUS-targeted vs contralateral: no statistically significant changes
[2]; RAID-treated mice, FUS+AADC-IKVAV+L-DOPA, counted by A. M. and Z. H.
  increase in ipsilateral c-Fos-positive cells vs contralateral site: 5.7(±1.8) fold
